Assay results as given in the supplement of paper PMC11246515.
± gives the standard deviation of the averaged measurements.

Experiment: total protein half-life in vivo (active degradation + dilution); higher = more stable protein
[1] = E. coli NCM3722 delta-clpP delta-lon delta-hslV, growth: N-lim chemostat, doubling time 6 h
[2] = E. coli NCM3722 delta-clpP, growth: N-lim chemostat, doubling time 6 h
[3] = E. coli NCM3722 delta-hslV, growth: N-lim chemostat, doubling time 6 h
[4] = E. coli NCM3722 delta-lon, growth: N-lim chemostat, doubling time 6 h
[5] = E. coli NCM3722 delta-smpB, growth: N-lim chemostat, doubling time 6 h
[6] = wild type E. coli NCM3722, growth: C-lim chemostat, doubling time 3 h
[7] = wild type E. coli NCM3722, growth: C-lim chemostat, doubling time 6 h
[8] = wild type E. coli NCM3722, growth: C-lim chemostat, doubling time 12 h
[9] = wild type E. coli NCM3722, growth: N-lim chemostat, doubling time 6 h
[10] = wild type E. coli NCM3722, growth: N-lim chemostat, doubling time 12 h
[11] = wild type E. coli NCM3722, growth: P-lim chemostat, doubling time 6 h
[12] = wild type E. coli NCM3722, growth: P-lim chemostat, doubling time 12 h

Sequence | total protein half-life in vivo [1] | total protein half-life in vivo [2] | total protein half-life in vivo [3] | total protein half-life in vivo [4] | total protein half-life in vivo [5] | total protein half-life in vivo [6] | total protein half-life in vivo [7] | total protein half-life in vivo [8] | total protein half-life in vivo [9] | total protein half-life in vivo [10] | total protein half-life in vivo [11] | total protein half-life in vivo [12]
MTKSELIERLATQQSHIPAKTVEDAVKEMLEHMASTLAQGERIEIRGFGSFSLHYRAPRTGRNPKTGDKVELEGKYVPHFKPGKELRDRANIYG [P0A6Y1] | 6.88 ± 0.81 h | 5.26 ± 0.3 h | 5.99 ± 1.1 h | 6.3 ± 0.4 h | 4.64 ± 0.21 h | 2.47 ± 0.093 h | 4.3 ± 0.44 h | 6.05 ± 0.37 h | 4.71 ± 0.18 h | 8.31 ± 2.4 h | 2.62 ± 0.24 h | 5.3658 ± 0.0042 h
MSIKNLPADYLLAAQQGDIDKVKTCLALGVDINTCDRQGKTAITLASLYQQYACVQALIDAGADINKQDHTCLNPFLISCLNDDLTLLRIILPAKPDLNCVTRFGGVGLTPACEKGHLSIVKELLAHTEINVNQTNHVGWTPLLEAIVLNDGGIKQQAIVQLLLEHGASPHLTDKYGKTPLELARERGFEEIAQLLIAAGA | 5.2 h |  |  |  |  |  |  |  |  |  |  | 
MTIALELQQLKKTYPGGVQALRGIDLQVEAGDFYALLGPNGAGKSTTIGIISSLVNKTSGRVSVFGYDLEKDVVNAKRQLGLVPQEFNFNPFETVQQIVVNQAGYYGVERKEAYIRSEKYLKQLDLWGKRNERARMLSGGMKRRLMIARALMHEPKLLILDEPTAGVDIELRRSMWGFLKDLNDKGTTIILTTHYLEEAEMLCRNIGIIQHGELVENTSMKALLAKLKSETFILDLAPKSPLPKLDGYQYRLVDTATLEVEVLREQGINSVFTQLSEQGIQVLSMRNKANRLEELFVSLVNEKQGDRA | 6.97 ± 0.91 h | 6.29 ± 0.4 h | 6.1 ± 1 h | 6.83 ± 0.17 h | 6.4 ± 0.21 h | 3.09 ± 0.16 h | 6.21 ± 0.28 h | 11.6 ± 1.9 h | 6.14 ± 0.38 h | 12.1 ± 0.42 h | 6.24 ± 0.29 h | 12.7 ± 0.8 h
MKSLFKVTLLATTMAVALHAPITFAAEAAKPATAADSKAAFKNDDQKSAYALGASLGRYMENSLKEQEKLGIKLDKDQLIAGVQDAFADKSKLSDQEIEQTLQAFEARVKSSAQAKMEKDAADNEAKGKEYREKFAKEKGVKTSSTGLVYQVVEAGKGEAPKDSDTVVVNYKGTLIDGKEFDNSYTRGEPLSFRLDGVIPGWTEGLKNIKKGGKIKLVIPPELAYGKAGVPGIPPNSTLVFDVELLDVKPAPKADAKPEADAKAADSAKK | 6.63 ± 0.44 h | 6.6 ± 0.35 h | 6.58 ± 0.14 h | 6.56 ± 0.067 h | 5.9 ± 0.28 h | 3.15 ± 0.053 h | 6.68 ± 0.15 h | 11.5 ± 0.64 h | 5.86 ± 0.3 h | 14 ± 2.2 h | 6.04 ± 0.87 h | 14.8 ± 1.6 h
MKKLVATAPRVAALVEYEDRAILANEVKIRVRFGAPKHGTEVVDFRAASPFIDEDFNGEWQMFTPRPADAPRGIEFGKFQLGNMVVGDIIECGSDVTDYAVGDSVCGYGPLSETVIINAVNNYKLRKMPQGSSWKNAVCYDPAQFAMSGVRDANVRVGDFVVVVGLGAIGQIAIQLAKRAGASVVIGVDPIAHRCDIARRHGADFCLNPIGTDVGKEIKTLTGKQGADVIIETSGYADALQSALRGLAYGGTISYVAFAKPFAEGFNLGREAHFNNAKIVFSRACSEPNPDYPRWSRKRIEETCWELLMNGYLNCEDLIDPVVTFANSPESYMQYVDQHPEQSIKMGVTF | 6.29 ± 0.3 h |  |  |  |  |  |  |  |  |  |  | 
MDKLLERFLNYVSLDTQSKAGVRQVPSTEGQWKLLHLLKEQLEEMGLINVTLSEKGTLMATLPANVPGDIPAIGFISHVDTSPDCSGKNVNPQIVENYRGGDIALGIGDEVLSPVMFPVLHQLLGQTLITTDGKTLLGADDKAGIAEIMTALAVLQQKKIPHGDIRVAFTPDEEVGKGAKHFDVDAFDARWAYTVDGGGVGELEFENFNAASVNIKIVGNNVHPGTAKGVMVNALSLAARIHAEVPADESPEMTEGYEGFYHLASMKGTVERADMHYIIRDFDRKQFEARKRKMMEIAKKVGKGLHPDCYIELVIEDSYYNMREKVVEHPHILDIAQQAMRDCDIEPELKPIRGGTDGAQLSFMGLPCPNLFTGGYNYHGKHEFVTLEGMEKAVQVIVRIAELTAQRK | 4.47 ± 0.093 h | 4.26 ± 0.49 h | 3.88 ± 0.14 h | 4.53 ± 0.13 h | 4.04 ± 0.089 h | 3.079 ± 0.019 h | 6.32 ± 1.1 h | 9.74 ± 0.59 h | 3.97 ± 0.13 h | 5.85 ± 0.25 h | 5.38 ± 0.2 h | 10.3 ± 0.14 h
MLQNCAQSNCRIIPKKLRDMKREEICRLLADKVNKLKNKENSLSGLLPDVRLLYGETPFARTPVMYEPGIIILFSGHKIGYINERVFRYDANEYLLLTVPLPFECETYATSEVPLAGLRLNVDILQLQELLMDIGEDEHFQPSMAASGINSATLSEEILCAAERLLDVMERPLDARILGKQIIREILYYVLTGPCGGALLALVSRQTHFSLISRVLKRIENKYTENLSVEQLAAEANMSVSAFHHNFKSVTSTSPLQYLKNYRLHKARMMIIHDGMKASAAAMRVGYESASQFSREFKRYFGVTPGEDAARMRAMQGN | 5 ± 0.43 h | 3.07 ± 0.072 h | 2.48 ± 0.13 h | 4.33 ± 0.18 h | 2.432 ± 0.0042 h | 2.08 ± 0.1 h | 3.87 ± 0.56 h | 4.94 h | 2.98 h | 3.71 ± 0.24 h | 2.74 h | 4.35 ± 0.82 h
